In US20180222987A1:

Tests used:
[1] = target: human CD3ε/δ-Fc fusion heterodimer (hCD3ε/δ-hFc) (human) (UniProt P04234); assay: SPR Biacore, CODV-Fab
[2] = target: Macaca fascicularis CD3ε/δ-Fc fusion heterodimer (Macaca fascicularis) (UniProt Q95LI8); assay: SPR Biacore, CODV-Fab
[3] = target: human CD123 on cells (human) (UniProt P26951); assay: cell-based or functional assay
[4] = target: Macaca fascicularis CD3 (TCR complex) on cyno HSC-F cells (Macaca fascicularis) (UniProt Q95LI5); assay: flow cytometry, cyno HSC-F (control row of Table 2; same value as in Table 1)
[5] = target: human CD3 (CD3ε of the TCR complex) on human T cells (human) (UniProt P07766); assay: flow cytometry, Jurkat E6-1 (w/o primary ab: 7)
[6] = target: human CD3 (CD3ε of the TCR complex) on human T cells (human) (UniProt P07766); assay: flow cytometry, Jurkat E6-1 (w/o primary ab: 7; control row of Table 2; same value as in Table 1)
[7] = target: Macaca fascicularis CD3 (TCR complex) on cyno HSC-F cells (Macaca fascicularis) (UniProt Q95LI5); assay: flow cytometry, cyno HSC-F
[8] = target: human CD3ε/δ-Fc fusion heterodimer (hCD3ε/δ-hFc) (human) (UniProt P04234); assay: SPR Biacore, Fab-fragment
[9] = target: Macaca fascicularis CD3ε/δ-Fc fusion heterodimer (Macaca fascicularis) (UniProt Q95LI8); assay: SPR Biacore, Fab-fragment
[10] = target: recombinant huCD3ε/γ, Fc-tagged (PB01225) (human) (UniProt P07766); assay: SPR, Fc-captured CD3, 100 nM
[11] = target: Macaca fascicularis CD3ε/δ-Fc fusion heterodimer (Macaca fascicularis) (UniProt Q95LI8); assay: SPR, cyno against human CD3ε/δ
[12] = target: human CD3ε/δ-Fc fusion heterodimer (hCD3ε/δ-hFc) (human) (UniProt P04234); assay: SPR, SP-34 used as IgG
[13] = target: Macaca fascicularis CD3ε/δ-Fc fusion heterodimer (Macaca fascicularis) (UniProt Q95LI8); assay: SPR, SP-34 used as IgG

Chain of Macaca fascicularis CD3ε/δ-Fc fusion heterodimer (Macaca fascicularis) (chain, as listed by the source mutant, chain 1 of 2): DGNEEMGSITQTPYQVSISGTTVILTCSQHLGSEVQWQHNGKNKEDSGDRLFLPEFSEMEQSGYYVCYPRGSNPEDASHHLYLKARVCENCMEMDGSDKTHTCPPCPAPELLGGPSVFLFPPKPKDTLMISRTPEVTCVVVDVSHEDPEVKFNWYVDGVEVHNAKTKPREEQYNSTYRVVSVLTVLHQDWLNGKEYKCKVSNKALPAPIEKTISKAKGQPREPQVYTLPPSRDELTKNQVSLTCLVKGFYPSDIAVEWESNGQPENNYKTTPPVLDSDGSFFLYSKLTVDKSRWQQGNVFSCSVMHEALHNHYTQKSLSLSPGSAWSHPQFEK
Chain of Macaca fascicularis CD3ε/δ-Fc fusion heterodimer (Macaca fascicularis) (Q95LI8 22-105, stated change not applied, chain 2 of 2): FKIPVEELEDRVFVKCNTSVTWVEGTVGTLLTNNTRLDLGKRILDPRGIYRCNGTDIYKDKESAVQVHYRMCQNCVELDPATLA
Chain of human CD3ε/δ-Fc fusion heterodimer (hCD3ε/δ-hFc) (human) (chain, as listed by the source mutant, chain 1 of 2): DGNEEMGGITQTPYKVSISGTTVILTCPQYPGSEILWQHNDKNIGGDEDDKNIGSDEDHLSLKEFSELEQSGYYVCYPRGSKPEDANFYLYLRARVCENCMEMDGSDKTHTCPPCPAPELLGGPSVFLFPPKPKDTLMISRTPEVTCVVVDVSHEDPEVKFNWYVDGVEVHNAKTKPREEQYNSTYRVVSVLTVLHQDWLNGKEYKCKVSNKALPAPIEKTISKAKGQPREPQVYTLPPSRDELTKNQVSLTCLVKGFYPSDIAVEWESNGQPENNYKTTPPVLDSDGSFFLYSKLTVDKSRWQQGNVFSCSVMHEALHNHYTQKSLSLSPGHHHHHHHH
Chain of human CD3ε/δ-Fc fusion heterodimer (hCD3ε/δ-hFc) (human) (P04234 22-105, stated change not applied, chain 2 of 2): as the sequence (Q95LI8 22-105, stated change not applied, chain 2 of 2) above, with V5I, K15N, V20I, T32S, N33D, N34I, A64T, N74S, L83V counted along it
Chain of Macaca fascicularis CD3 (TCR complex) on cyno HSC-F cells (Macaca fascicularis) (Q95LI5 22-198 limits assumed, one chain of several): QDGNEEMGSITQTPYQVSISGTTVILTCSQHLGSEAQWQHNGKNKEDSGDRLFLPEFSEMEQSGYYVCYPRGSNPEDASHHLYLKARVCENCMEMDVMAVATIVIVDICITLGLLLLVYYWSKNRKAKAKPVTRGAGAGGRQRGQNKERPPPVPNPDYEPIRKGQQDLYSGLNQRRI
Chain of human CD123 on cells (human) (P26951 19-378): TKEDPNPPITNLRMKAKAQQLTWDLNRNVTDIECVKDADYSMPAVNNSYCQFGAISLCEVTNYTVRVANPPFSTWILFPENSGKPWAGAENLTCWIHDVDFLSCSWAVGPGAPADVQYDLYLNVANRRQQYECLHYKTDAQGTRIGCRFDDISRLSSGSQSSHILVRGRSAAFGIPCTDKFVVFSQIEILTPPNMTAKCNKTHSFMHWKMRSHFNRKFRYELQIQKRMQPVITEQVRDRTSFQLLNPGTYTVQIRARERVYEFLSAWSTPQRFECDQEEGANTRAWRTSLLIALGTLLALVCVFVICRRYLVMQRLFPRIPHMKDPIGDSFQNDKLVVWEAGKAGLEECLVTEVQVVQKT

Work on “CODV-Fab 7G3 × I2C (bispecific antibody)” yielded a Kd [1] of 0.5 nM, a koff [1] of 0.002 s⁻¹ and a kon [1] of 4e+06 M⁻¹ s⁻¹. The Kd [2] was 0.4 nM and the Activity EC50 (cytotoxic assay, THP-1 targets + primary human T cells) [3] was 0.02 µg/mL.
FN18 (antibody) was tested, and the geometric mean of relative fluorescence intensity [4] was 1260 rfu, the geometric mean of relative fluorescence intensity [5] was 7 rfu and the geometric mean of relative fluorescence intensity [6] was 7 rfu. It also gave a geometric mean of relative fluorescence intensity [7] of 1260 rfu.
Work on I2C Fab (monospecific anti-CD3 Fab) yielded a Kd [8] of 0.13 nM, a koff [8] of 0.0013 s⁻¹ and a kon [8] of 1.1e+07 M⁻¹ s⁻¹. For the same substance, the Kd [9] was 0.5 nM.
OKT3 (antibody) gave an RU of Fab binding at 100 nM [10] of 3 RU.
Substance SP-34 (antibody) has a ratio KD(cy)/KD(hu) [11] of 5, a Kd [12] of 2.7 nM and a koff [12] of 0.003 s⁻¹. It also gave a kon [12] of 1.1e+06 M⁻¹ s⁻¹, a Kd [13] of 13 nM and a koff [13] of 0.0028 s⁻¹. For the same substance, the kon [13] was 220000 M⁻¹ s⁻¹.
